# Earlier results as cited in PMC2888655.
# Where two headings read alike, the source gives them in different places.
# Experiments:
# IGF2 (Homo sapiens) [1] = target: IGF2 (Homo sapiens) (UniProt P01344); test: SPR
# IGF1 (Homo sapiens) [2] = target: IGF1 (Homo sapiens) (UniProt P05019); test: SPR
# IGF2 (Homo sapiens) [3] = target: IGF2 (Homo sapiens) (UniProt P01344)
# IGF1 (Homo sapiens) [4] = target: IGF1 (Homo sapiens) (UniProt P05019)
# Chain of IGF1 (Homo sapiens) (P05019 49-118): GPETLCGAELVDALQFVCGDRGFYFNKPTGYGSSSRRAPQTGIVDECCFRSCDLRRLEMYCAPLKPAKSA
# Chain of IGF1R (from UniProt Q05688) (Q05688 14-208): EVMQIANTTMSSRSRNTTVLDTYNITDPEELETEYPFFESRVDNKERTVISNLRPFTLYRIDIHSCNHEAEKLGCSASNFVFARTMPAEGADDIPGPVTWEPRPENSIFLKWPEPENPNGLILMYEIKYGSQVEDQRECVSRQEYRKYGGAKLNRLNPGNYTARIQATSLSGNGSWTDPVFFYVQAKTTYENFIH
# Chain of IGF2 (Homo sapiens) (P01344 25-91): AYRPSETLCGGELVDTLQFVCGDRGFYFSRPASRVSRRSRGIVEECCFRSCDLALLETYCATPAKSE
# Chain of IGF1R (from UniProt P08069) (P08069 31-736): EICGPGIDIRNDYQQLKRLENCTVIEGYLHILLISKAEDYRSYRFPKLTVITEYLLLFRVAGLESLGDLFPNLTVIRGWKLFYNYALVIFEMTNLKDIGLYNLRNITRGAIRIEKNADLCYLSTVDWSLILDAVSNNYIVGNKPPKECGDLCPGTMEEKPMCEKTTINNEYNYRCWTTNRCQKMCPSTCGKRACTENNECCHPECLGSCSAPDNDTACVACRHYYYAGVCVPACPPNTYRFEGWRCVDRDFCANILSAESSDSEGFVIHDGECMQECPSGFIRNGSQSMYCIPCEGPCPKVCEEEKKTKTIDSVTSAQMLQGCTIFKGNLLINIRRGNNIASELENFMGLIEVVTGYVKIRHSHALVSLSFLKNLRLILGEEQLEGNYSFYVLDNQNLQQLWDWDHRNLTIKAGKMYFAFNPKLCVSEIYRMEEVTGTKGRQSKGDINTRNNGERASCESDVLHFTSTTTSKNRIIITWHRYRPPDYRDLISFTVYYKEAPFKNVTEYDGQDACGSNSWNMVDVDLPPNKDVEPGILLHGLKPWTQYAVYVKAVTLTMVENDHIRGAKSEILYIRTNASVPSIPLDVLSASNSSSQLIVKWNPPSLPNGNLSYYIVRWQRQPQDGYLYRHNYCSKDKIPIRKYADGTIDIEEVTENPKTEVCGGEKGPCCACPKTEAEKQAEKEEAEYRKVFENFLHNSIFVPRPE
# Chain of IGF1R (from UniProt P08069) (P08069 741-935): as the sequence (Q05688 14-208) above, with E1D, I5V, V19A, L20A, T189G counted along it
Kd (IGF2 (Homo sapiens) [1]),Kd (IGF1 (Homo sapiens) [2]),Kd (IGF2 (Homo sapiens) [3]),Kd (IGF1 (Homo sapiens) [4]),Substance
17.8 nM,4.45 nM,,,IGF1R (from UniProt P08069)
,,1 nM,1 nM,IGF1R (from UniProt Q05688)
